The numbers were not newly measured in PMC3140970, which cites them from elsewhere.

For the data set, the target named is IRSp53 SH3 (UniProt Q9UQB8).
Sequence of IRSp53 SH3 (Q9UQB8 374-437): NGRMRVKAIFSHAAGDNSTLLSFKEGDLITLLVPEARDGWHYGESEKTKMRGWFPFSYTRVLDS

Sequence of Eps8 (Q08509 whole entry): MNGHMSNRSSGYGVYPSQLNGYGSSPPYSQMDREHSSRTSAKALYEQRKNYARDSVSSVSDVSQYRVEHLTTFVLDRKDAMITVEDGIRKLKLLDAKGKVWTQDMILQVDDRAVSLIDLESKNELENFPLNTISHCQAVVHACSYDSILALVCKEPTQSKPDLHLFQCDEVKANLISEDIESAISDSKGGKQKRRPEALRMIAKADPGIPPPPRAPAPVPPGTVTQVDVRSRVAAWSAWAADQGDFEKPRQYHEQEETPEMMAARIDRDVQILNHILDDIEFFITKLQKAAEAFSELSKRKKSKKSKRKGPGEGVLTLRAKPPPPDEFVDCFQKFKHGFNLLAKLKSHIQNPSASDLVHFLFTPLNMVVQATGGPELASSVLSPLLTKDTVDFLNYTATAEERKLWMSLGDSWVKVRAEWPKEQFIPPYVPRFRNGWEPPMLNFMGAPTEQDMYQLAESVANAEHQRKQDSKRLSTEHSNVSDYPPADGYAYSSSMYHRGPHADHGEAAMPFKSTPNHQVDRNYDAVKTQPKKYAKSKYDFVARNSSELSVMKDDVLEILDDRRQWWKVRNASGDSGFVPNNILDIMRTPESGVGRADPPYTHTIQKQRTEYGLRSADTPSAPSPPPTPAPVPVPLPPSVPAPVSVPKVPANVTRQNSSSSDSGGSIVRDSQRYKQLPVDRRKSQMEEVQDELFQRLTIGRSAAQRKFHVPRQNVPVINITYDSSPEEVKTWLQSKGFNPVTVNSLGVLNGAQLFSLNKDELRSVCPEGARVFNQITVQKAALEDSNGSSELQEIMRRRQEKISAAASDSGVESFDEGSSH

For the substance Eps8 (from UniProt Q08509), the Kd (usually the concentration at which binding is half-saturated) is 10 nM.
